Assay results taken from patent US20050064507A1, “Determining kinase specificity” (priority 2003, published 2005).

Legend:
PKC-zeta = molecular target: T1, PKC-zeta (Homo sapiens, UniProt Q05513); experiment: In vitro kinase assay: peptide phosphorylation by PKC-zeta; assay type: biochemical; settings: for PKC-zeta phosphorylation: normalized to best substrate
T1 construct: purchased Calbiochem
T1 sequence (Q05513 1-592): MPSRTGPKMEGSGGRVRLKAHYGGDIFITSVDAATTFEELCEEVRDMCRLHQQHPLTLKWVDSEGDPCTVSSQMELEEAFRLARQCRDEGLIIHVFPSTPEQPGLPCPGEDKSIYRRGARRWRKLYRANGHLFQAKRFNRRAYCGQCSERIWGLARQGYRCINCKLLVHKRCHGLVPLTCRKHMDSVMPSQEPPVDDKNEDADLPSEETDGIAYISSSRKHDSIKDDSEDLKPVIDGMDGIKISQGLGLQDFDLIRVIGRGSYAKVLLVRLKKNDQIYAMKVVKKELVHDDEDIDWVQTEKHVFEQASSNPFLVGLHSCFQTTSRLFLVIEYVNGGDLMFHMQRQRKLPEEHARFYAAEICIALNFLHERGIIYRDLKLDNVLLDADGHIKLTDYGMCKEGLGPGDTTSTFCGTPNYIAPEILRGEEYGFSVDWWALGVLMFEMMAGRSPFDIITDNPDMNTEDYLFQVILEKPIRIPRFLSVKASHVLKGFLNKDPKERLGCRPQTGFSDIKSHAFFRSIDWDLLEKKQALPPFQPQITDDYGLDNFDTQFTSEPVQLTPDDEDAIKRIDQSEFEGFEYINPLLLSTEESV
Protocol: Catalytically active preparations of the kinases of interest were either purchased or prepared. Purchased and tested active kinase preparations including the following: PKC-alpha, PKC-delta, PKC-epsilon, PKC-zeta, PKC-mu, PKA, PKG from Calbiochem, ROK alpha/ROCK-II, active from Upstate Biotechnology, and AKT1 from Panvera.
The conditions of the kinase assay and the amount of active kinase used varied with the kinase and with the accuracy needed. For a typical experiment, 5-20 ng of kinase was used per well and each peptide pool was assayed in duplicate wells. Note that the absolute amount of kinase used was not usually a critical parameter, because the desired information related to specificity of the kinase not its absolute activity, and robustness of the assay depends on comparisons of the same amount of kinase on different peptides. The combination of kinase concentration and assay duration was modified to assure that the stoichiometry of peptide phosphorylation never exceeded 5%. The choice of kinase buffer depended on the kinase being analyzed. For studies of PKC, 100 mM HEPES, 0.05% Triton-X100, 1 mM CaCl2, 20 mM MgCl2, 0.2 mg/ml phosphatidyl serine (Avanti Polar Lipids), PMA 100 ng/ml was typically used. The lipid stock was prepared by transferring 3 mg phosphatidyl serine into iced mixture of 450 μl water plus 50 μl of 10% Triton-X100, sonicating 10 times on ice for 1 sec each.
The kinase reaction mixture was assembled by sequential addition to a tube held on ice of: 5 μl peptide (100 μM for final concentration of 10 μM), 15 μl of kinase (typically 5 ng/well, in appropriate kinase buffer), 30 μl of ATP (1 uCi/well of ^32P-gamma ATP in a stock of 167 μM cold ATP in the kinase buffer; for final concentration for 100 μM ATP). The mixture was rapidly warmed to desired reaction temperature (30° C. for PKC) and incubated for the desired duration (usually 10 minutes). The kinase assay was terminated by transfer to 4° C. water batch, and rapid addition of an equal volume (50 μl) of stop solution [0.1M ATP+0.1M EDTA in water, pH 8].
The peptides were then captured from the reaction mixture by transfer to a Reacti-Bind Streptavidin High Binding Capacity Coated Plates (HBC) (Pierce Biotechnology) as follows. The HBC plates were pre-rinsed three times with PBS/Tween PBS/Tween20 0.05% (PBS/Tween). Part of all of the reaction mixture was then transferred wells of a HBC plate pre-filled with 90 μl of phosphate-buffered saline (PBS); typically each aliquots of each phosphorylation reaction were transferred to duplicate HBC plates to assure accuracy by additional replication
For kinase assays done at the standard peptide concentration of 10 μM, the peptide concentration in the reaction mixture becomes 5 μM after addition of the stop solution; consequently 10 μl of the reaction (50 pMoles of peptide) was transferred to the HBC plate. More generally, the amount of reaction mixture transferred was estimated to be about 50 pMoles of peptide. […] The HBC plates were incubated for 0.5 to 1.5 hr at room temperature for complete binding of biotinylated peptides to plate-bound streptavidin. The HBC plates were then washed extensively with PBS/Tween. Five washes were done routinely and additional wash steps were added if the wash solution removed from the plate had measurable radioactivity as detected using a Geiger counter. This step is essential to obtaining a good the signal to noise ratio because the fraction of radioactivity incorporated in the peptides was a tiny fraction of the total in the reaction mixture. The wells were air-dried. A volume of 40-50 μl of microScint-20 (Packard Instruments) was added to each well. The plates were covered with stick-on film sheet. Radioactive emissions were measured in a TopCount NXT Microplate Scintillation and Luminescence Counter (Packard Instruments). Typically samples were counted for 5 minutes (or more) to improve the signal to noise ratio when counts were low. […]

PKC-delta = molecular target: T2, PKC-delta (Homo sapiens, UniProt Q05655); experiment: In vitro kinase assay: peptide phosphorylation by PKC-delta; assay type: biochemical; settings: for PKC delta phosphorylation: normalized to best substrate;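 on PKC delta phosphorylation: peptide concentration 10 nM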
T2 construct: purchased Calbiochem
Procedure, shortened: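 Biotin-Lys-dansyl-Lys-Pro-Pro-Gly-linked proteomic peptides (12–21-residue core) phosphorylated by PKC-delta in HEPES/Triton/CaCl2/MgCl2 buffer with phosphatidyl serine and PMA, 100 μM [γ-32P]ATP, 30° C., ~10 min, stoichiometry ≤5%; streptavidin-plate capture. Signal normalized as % of best peptide substrate.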

T2 sequence (Q05655 whole entry): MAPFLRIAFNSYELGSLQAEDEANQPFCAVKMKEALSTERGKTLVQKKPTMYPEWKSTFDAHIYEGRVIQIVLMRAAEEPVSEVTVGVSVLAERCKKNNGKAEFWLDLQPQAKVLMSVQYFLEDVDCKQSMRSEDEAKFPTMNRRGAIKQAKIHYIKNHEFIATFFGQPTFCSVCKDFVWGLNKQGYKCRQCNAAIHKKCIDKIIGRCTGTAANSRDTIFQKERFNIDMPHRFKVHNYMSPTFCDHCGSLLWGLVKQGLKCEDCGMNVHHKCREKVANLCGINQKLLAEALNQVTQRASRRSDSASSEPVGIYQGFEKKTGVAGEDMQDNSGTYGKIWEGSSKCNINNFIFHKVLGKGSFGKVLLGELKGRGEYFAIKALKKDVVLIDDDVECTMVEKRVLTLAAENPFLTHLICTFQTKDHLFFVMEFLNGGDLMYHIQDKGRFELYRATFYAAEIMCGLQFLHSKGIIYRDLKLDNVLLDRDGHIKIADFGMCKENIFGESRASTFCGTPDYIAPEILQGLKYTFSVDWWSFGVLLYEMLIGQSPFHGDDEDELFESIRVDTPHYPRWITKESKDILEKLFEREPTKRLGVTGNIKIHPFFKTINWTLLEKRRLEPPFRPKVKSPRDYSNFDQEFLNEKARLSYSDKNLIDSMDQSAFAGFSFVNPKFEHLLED

Substance: 117 (NRKKKRTSFKRKA) [compound 117]
- phosphorylation by PKC zeta (PKC-zeta; peptide concentration 1 uM): 20
- phosphorylation by PKC zeta (PKC-zeta; peptide concentration 10 uM): 11
- phosphorylation by PKC-delta (PKC-delta; peptide concentration 1 uM): 100
- phosphorylation by PKC-delta (PKC-delta; peptide concentration 10 uM): 79

Substance: 107 (QKRHARVTVKYDRRE) [compound 107]
- PKC-zeta phosphorylation (PKC-zeta): 1%
- PKC delta phosphorylation (PKC-delta): 10%

Substance: 82 (PRLIRRGSKKRPAR) [compound 82]
- PKC-zeta phosphorylation (PKC-zeta): 38%
- PKC delta phosphorylation (PKC-delta): 40%

Substance: 126 (KAIKAIEGGQKFARKSTRRS) [compound 126]
- phosphorylation by PKC zeta (PKC-zeta; peptide concentration 1 uM): 46
- phosphorylation by PKC zeta (PKC-zeta; peptide concentration 10 uM): 56
- phosphorylation by PKC-delta (PKC-delta; peptide concentration 1 uM): 47
- phosphorylation by PKC-delta (PKC-delta; peptide concentration 10 uM): 43

Substance: 94 (KLAVGRHSFSRRSGV) [compound 94]
- PKC-zeta phosphorylation (PKC-zeta): 10%
- PKC delta phosphorylation (PKC-delta): 12%

Substance: 144 (LSSMFGTLPRKSRKGSVRKQ) [compound 144]
- phosphorylation by PKC zeta (PKC-zeta; peptide concentration 1 uM): 16
- phosphorylation by PKC zeta (PKC-zeta; peptide concentration 10 uM): 54
- phosphorylation by PKC-delta (PKC-delta; peptide concentration 1 uM): 35
- phosphorylation by PKC-delta (PKC-delta; peptide concentration 10 uM): 28

Substance: 154 (KKFFTQGWAGWRKKTSFRKP) [compound 154]
- phosphorylation by PKC zeta (PKC-zeta; peptide concentration 1 uM): 27
- phosphorylation by PKC zeta (PKC-zeta; peptide concentration 10 uM): 23
- phosphorylation by PKC-delta (PKC-delta; peptide concentration 1 uM): 26
- phosphorylation by PKC-delta (PKC-delta; peptide concentration 10 uM): 14

Substance: 166 (MAQIERGEARIQRRISIKKA) [compound 166]
- phosphorylation by PKC zeta (PKC-zeta; peptide concentration 1 uM): 2
- phosphorylation by PKC zeta (PKC-zeta; peptide concentration 10 uM): 9
- phosphorylation by PKC-delta (PKC-delta; peptide concentration 1 uM): 13
- phosphorylation by PKC-delta (PKC-delta; peptide concentration 10 uM): 29

Substance: 111 (KKKRFSFKKSFKLSGFSFKK) [compound 111]
- PKC-zeta phosphorylation (PKC-zeta): 9%
- PKC delta phosphorylation (PKC-delta): 16%

Substance: 90 (AQIVKRASLKRGKQ) [compound 90]
- PKC-zeta phosphorylation (PKC-zeta): 5%
- PKC delta phosphorylation (PKC-delta): 32%
